test system: Escherichia coli TOP10; test: shrunken log2 fold change of peptide-encoding DNA abundance (4.5 h post-induction vs induction); higher = less antimicrobial activity (less host growth inhibition); conditions: time post-induction: 4.5 h; library: site-saturation at positions 5, 18, 19, 20
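Further: peptides expressed intracellularly from a pBAD plasmid library in pooled LB shake-flask culture, induced with 0.3% L-arabinose, DNA abundance read by NGS, three biological replicates, DESeq2 with apeglm shrinkage.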

Row | Sequence | shrunken log2 fold change
1 | RRIRTRPPRLPRPRPRPIKLPRP | -0.412
2 | RRIRTRPPRLPRPRPRPIMIPRP | -0.163
3 | RRIRTRPPRLPRPRPRPIMNPRP | 0.0436
4 | RRIRTRPPRLPRPRPRPIPLPRP | -0.683
5 | RRIRTRPPRLPRPRPRPIQKPRP | -0.00925
6 | RRIRTRPPRLPRPRPRPIQSPRP | -0.0351
7 | RRIRTRPPRLPRPRPRPIRDPRP | -0.288
8 | RRIRTRPPRLPRPRPRPIRLPRP | 0.0213
9 | RRIRTRPPRLPRPRPRPIRSPRP | 0.0601
10 | RRIRTRPPRLPRPRPRPIVTPRP | 1.13
11 | RRIRTRPPRLPRPRPRPIVVPRP | -9.82e-05
12 | RRIRTRPPRLPRPRPRPIVYPRP | -0.85
13 | RRIRTRPPRLPRPRPRPIWNPRP | -0.169
14 | RRIRTRPPRLPRPRPRPIYKPRP | -1.02
15 | RRIRTRPPRLPRPRPRPIYTPRP | -0.46
16 | RRIRTRPPRLPRPRPRPKCDPRP | 0.118
17 | RRIRTRPPRLPRPRPRPKDEPRP | -0.0319
18 | RRIRTRPPRLPRPRPRPKEEPRP | 0.00448
19 | RRIRTRPPRLPRPRPRPKEIPRP | -1.03
20 | RRIRTRPPRLPRPRPRPKETPRP | 0.137
21 | RRIRTRPPRLPRPRPRPKGEPRP | 0.0539
22 | RRIRTRPPRLPRPRPRPKGWPRP | 0.414
23 | RRIRTRPPRLPRPRPRPKIMPRP | -0.519
24 | RRIRTRPPRLPRPRPRPKKKPRP | -0.125
25 | RRIRTRPPRLPRPRPRPKKNPRP | 0.409

Row | Sequence | shrunken log2 fold change
26 | RRIRTRPPRLPRPRPRPKLAPRP | 0.163
27 | RRIRTRPPRLPRPRPRPKLQPRP | -0.114
28 | RRIRTRPPRLPRPRPRPKMNPRP | -0.558
29 | RRIRTRPPRLPRPRPRPKNCPRP | -0.0901
30 | RRIRTRPPRLPRPRPRPKNKPRP | -0.525
31 | RRIRTRPPRLPRPRPRPKPGPRP | 0.299
32 | RRIRTRPPRLPRPRPRPKPRPRP | 0.692
33 | RRIRTRPPRLPRPRPRPKQCPRP | -0.00809
34 | RRIRTRPPRLPRPRPRPKQNPRP | 0.638
35 | RRIRTRPPRLPRPRPRPKQQPRP | -0.0149
36 | RRIRTRPPRLPRPRPRPKRFPRP | -0.00233
37 | RRIRTRPPRLPRPRPRPKRKPRP | 0.0722
38 | RRIRTRPPRLPRPRPRPKSYPRP | -0.364
39 | RRIRTRPPRLPRPRPRPKTCPRP | 0.012
40 | RRIRTRPPRLPRPRPRPKTHPRP | 0.29
41 | RRIRTRPPRLPRPRPRPKVEPRP | 0.12
42 | RRIRTRPPRLPRPRPRPKWCPRP | 0.00669
43 | RRIRTRPPRLPRPRPRPKWDPRP | -0.0626
44 | RRIRTRPPRLPRPRPRPKWQPRP | 0.0171
45 | RRIRTRPPRLPRPRPRPKWWPRP | 0.683
46 | RRIRTRPPRLPRPRPRPKYIPRP | -0.748
47 | RRIRTRPPRLPRPRPRPKYNPRP | -0.81
48 | RRIRTRPPRLPRPRPRPLCEPRP | -0.0895
49 | RRIRTRPPRLPRPRPRPLCSPRP | -0.27
50 | RRIRTRPPRLPRPRPRPLDQPRP | 0.365

Row | Sequence | shrunken log2 fold change
51 | RRIRTRPPRLPRPRPRPLDYPRP | -2.42
52 | RRIRTRPPRLPRPRPRPLELPRP | -0.176
53 | RRIRTRPPRLPRPRPRPLFPPRP | -0.415
54 | RRIRTRPPRLPRPRPRPLFYPRP | -0.467
55 | RRIRTRPPRLPRPRPRPLHPPRP | 0.375
56 | RRIRTRPPRLPRPRPRPLIDPRP | -0.0458
57 | RRIRTRPPRLPRPRPRPLIFPRP | -0.446
58 | RRIRTRPPRLPRPRPRPLLRPRP | 0.0975
59 | RRIRTRPPRLPRPRPRPLLSPRP | 0.0198
60 | RRIRTRPPRLPRPRPRPLMHPRP | -0.454
61 | RRIRTRPPRLPRPRPRPLNKPRP | -0.225
62 | RRIRTRPPRLPRPRPRPLRMPRP | -0.0962
63 | RRIRTRPPRLPRPRPRPLSPPRP | 0.0169
64 | RRIRTRPPRLPRPRPRPLTAPRP | -0.32
65 | RRIRTRPPRLPRPRPRPLTDPRP | -0.198
66 | RRIRTRPPRLPRPRPRPLTYPRP | 0.959
67 | RRIRTRPPRLPRPRPRPLWGPRP | -0.0731
68 | RRIRTRPPRLPRPRPRPLWKPRP | -0.178
69 | RRIRTRPPRLPRPRPRPLYIPRP | -0.998
70 | RRIRTRPPRLPRPRPRPLYSPRP | -0.575
71 | RRIRTRPPRLPRPRPRPMAHPRP | -0.161
72 | RRIRTRPPRLPRPRPRPMASPRP | 0.0589
73 | RRIRTRPPRLPRPRPRPMENPRP | -0.011
74 | RRIRTRPPRLPRPRPRPMETPRP | 0.0774
75 | RRIRTRPPRLPRPRPRPMFDPRP | -0.0585

Row | Sequence | shrunken log2 fold change
76 | RRIRTRPPRLPRPRPRPMKAPRP | 0.0679
77 | RRIRTRPPRLPRPRPRPMLSPRP | -0.41
78 | RRIRTRPPRLPRPRPRPMMFPRP | -0.0404
79 | RRIRTRPPRLPRPRPRPMMLPRP | 0.00466
80 | RRIRTRPPRLPRPRPRPMMQPRP | -0.0796
81 | RRIRTRPPRLPRPRPRPMMSPRP | -0.282
82 | RRIRTRPPRLPRPRPRPMNKPRP | -0.373
83 | RRIRTRPPRLPRPRPRPMNVPRP | 0.0707
84 | RRIRTRPPRLPRPRPRPMPEPRP | 0.0253
85 | RRIRTRPPRLPRPRPRPMQAPRP | -0.0247
86 | RRIRTRPPRLPRPRPRPMQGPRP | 0.321
87 | RRIRTRPPRLPRPRPRPMQIPRP | 0.08
88 | RRIRTRPPRLPRPRPRPMQKPRP | -0.00906
89 | RRIRTRPPRLPRPRPRPMQTPRP | 0.0276
90 | RRIRTRPPRLPRPRPRPMTFPRP | 0.0754
91 | RRIRTRPPRLPRPRPRPMTIPRP | -0.137
92 | RRIRTRPPRLPRPRPRPMTKPRP | -0.0084
93 | RRIRTRPPRLPRPRPRPMTNPRP | -0.138
94 | RRIRTRPPRLPRPRPRPMTQPRP | 0.13
95 | RRIRTRPPRLPRPRPRPMTSPRP | -0.168
96 | RRIRTRPPRLPRPRPRPMWAPRP | 0.0473
97 | RRIRTRPPRLPRPRPRPMWNPRP | -0.418
98 | RRIRTRPPRLPRPRPRPMYRPRP | -0.0591
99 | RRIRTRPPRLPRPRPRPNARPRP | -0.0251
100 | RRIRTRPPRLPRPRPRPNCLPRP | -0.0709

Row | Sequence | shrunken log2 fold change
101 | RRIRTRPPRLPRPRPRPNCVPRP | 0.00481
102 | RRIRTRPPRLPRPRPRPNDFPRP | -0.205
103 | RRIRTRPPRLPRPRPRPNHMPRP | -0.792
104 | RRIRTRPPRLPRPRPRPNIFPRP | -0.174
105 | RRIRTRPPRLPRPRPRPNKCPRP | -0.314
106 | RRIRTRPPRLPRPRPRPNKHPRP | -0.448
107 | RRIRTRPPRLPRPRPRPNMQPRP | -0.223
108 | RRIRTRPPRLPRPRPRPNMYPRP | -0.637
109 | RRIRTRPPRLPRPRPRPNPTPRP | 0.207
110 | RRIRTRPPRLPRPRPRPNREPRP | 0.115
111 | RRIRTRPPRLPRPRPRPNRPPRP | 0.00512
112 | RRIRTRPPRLPRPRPRPNRQPRP | 0.0749
113 | RRIRTRPPRLPRPRPRPNSAPRP | -0.181
114 | RRIRTRPPRLPRPRPRPNSCPRP | 0.0686
115 | RRIRTRPPRLPRPRPRPNSLPRP | 0.0607
116 | RRIRTRPPRLPRPRPRPNTDPRP | -0.615
117 | RRIRTRPPRLPRPRPRPNTMPRP | -0.675
118 | RRIRTRPPRLPRPRPRPNVLPRP | -0.0117
119 | RRIRTRPPRLPRPRPRPNVQPRP | -0.429
120 | RRIRTRPPRLPRPRPRPNWAPRP | -0.243
121 | RRIRTRPPRLPRPRPRPPCCPRP | 0.00432
122 | RRIRTRPPRLPRPRPRPPCSPRP | -0.00786
123 | RRIRTRPPRLPRPRPRPPDMPRP | -0.142
124 | RRIRTRPPRLPRPRPRPPDRPRP | 0.257
125 | RRIRTRPPRLPRPRPRPPDTPRP | 0.0652

Row | Sequence | shrunken log2 fold change
126 | RRIRTRPPRLPRPRPRPPEVPRP | 0.0579
127 | RRIRTRPPRLPRPRPRPPEWPRP | 0.442
128 | RRIRTRPPRLPRPRPRPPFDPRP | 0.104
129 | RRIRTRPPRLPRPRPRPPFHPRP | 0.535
130 | RRIRTRPPRLPRPRPRPPFTPRP | 0.0073
131 | RRIRTRPPRLPRPRPRPPGCPRP | 0.528
132 | RRIRTRPPRLPRPRPRPPGPPRP | 0.53
133 | RRIRTRPPRLPRPRPRPPGVPRP | 0.182
134 | RRIRTRPPRLPRPRPRPPHKPRP | 0.242
135 | RRIRTRPPRLPRPRPRPPHQPRP | 0.237
136 | RRIRTRPPRLPRPRPRPPLHPRP | 0.0532
137 | RRIRTRPPRLPRPRPRPPLPPRP | 0.33
138 | RRIRTRPPRLPRPRPRPPLSPRP | -0.0606
139 | RRIRTRPPRLPRPRPRPPMEPRP | -0.00995
140 | RRIRTRPPRLPRPRPRPPMHPRP | 0.141
141 | RRIRTRPPRLPRPRPRPPQRPRP | 0.577
142 | RRIRTRPPRLPRPRPRPPQYPRP | -0.108
143 | RRIRTRPPRLPRPRPRPPRQPRP | 0.52
144 | RRIRTRPPRLPRPRPRPPSNPRP | -0.244
145 | RRIRTRPPRLPRPRPRPPSSPRP | -0.00871
146 | RRIRTRPPRLPRPRPRPPTMPRP | -0.0279
147 | RRIRTRPPRLPRPRPRPPTWPRP | 0.0779
148 | RRIRTRPPRLPRPRPRPPVMPRP | -0.113
149 | RRIRTRPPRLPRPRPRPPVPPRP | 0.139
150 | RRIRTRPPRLPRPRPRPPVRPRP | 0.558

From the supplement of paper PMC9112550, “Optimization of the antimicrobial peptide Bac7 by deep mutational scanning” (BMC Biology, 2022)
